Where a chain is given by its changes, count along the chain named. Names and notes keep the numbering of the source. Each block holds one binder with its values, some of them ahead of it.
How the values were obtained:
[1] = biological target: T1, IGF-I (insulin-like growth factor I) (UniProt P05019 49-118); test: SPR (BIAcore), IGF-I amine-coupled to CM5 chip; ratio against hIGFBP-2
T1 construct: Amine-coupled (70 RU) to a CM-5 biosensor chip; also added to HT-29 cells; also called IGF-1
Description: (§1) The IGF surface was regenerated with 10 mM HCl.
(§2) The dissociation constant (KD) was determined from the calculation of kd/kₐ, where kₐ is the association rate and kd is the dissociation rate.

[2] = biological target: T2, IGF-II (insulin-like growth factor II) (UniProt P01344 25-91); test: SPR (BIAcore), IGF-II amine-coupled to CM5 chip; ratio against hIGFBP-2
T2 construct: Amine-coupled (70 RU) to a CM-5 biosensor chip
T2 sequence (P01344 25-91 limits assumed): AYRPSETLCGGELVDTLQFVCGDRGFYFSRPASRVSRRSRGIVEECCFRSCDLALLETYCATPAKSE
Description: as §1
(§3) Table 3. […] Data was analysed using BIAevaluation software 3.0 and fit to a Langmuir 1:1 binding model. The dissociation constant (KD) was determined from the calculation of kd/kₐ, where kₐ is the association rate and kd is the dissociation rate.

[3] = biological target: T1, IGF-I (insulin-like growth factor I); test: SPR (BIAcore) on immobilised IGF-I; text summing up Table 2
Description: as §1, §2

[4] = biological target: T2, IGF-II (insulin-like growth factor II); test: SPR (BIAcore) on immobilised IGF-II; text summing up Table 3
Description: as §1, §3

T1 sequence (P05019 49-118 limits assumed): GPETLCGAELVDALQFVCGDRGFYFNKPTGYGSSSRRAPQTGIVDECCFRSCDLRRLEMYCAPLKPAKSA

B1: K227AHis hIGFBP-2 (other, human)
chain: EVLFRCPPCTPERLAACGPPPVAPPAAVAAVAGGARMPCAELVREPGCGCCSVCARLEGEACGVYTPRCGQGLRCYPHPGSELPLQALVMGEGTCEKRRDAEYGASPEQVADNGDDHSEGGLVENHVDSTMNMLGGGGSAGRKPLKSGMKELAVFREKVTEQHRQMGKGGKHHLGLEEPKKLRPPPARTPCQQELDQVLERISTMRLPDERGPLEHLYSLHIPNCDAHGLYNLKQCKMSLNGQRGECWCVNPNTGKLIQGAPTIRGDPECHLFYNEQQEARGVHTQRMQHHHHHH
notes: mature
- Rel. KD (KD of hIGFBP-2/KD of hIGFBP-2 mutant) [1]: 1.34
- Rel. KD (KD of hIGFBP-2/KD of hIGFBP-2 mutant) [2]: 1.27

B4: K180A K181AHis hIGFBP-2 (other, human)
chain: B1 chain with K180A, K181A, A227K
notes: mature; also called K180A, K181A mutation
- Rel. KD (KD of hIGFBP-2/KD of hIGFBP-2 mutant) [1]: 0.87
- Rel. KD (KD of hIGFBP-2/KD of hIGFBP-2 mutant) [2]: 0.68

Results, then the binder that gave them:

- Rel. KD (KD of hIGFBP-2/KD of hIGFBP-2 mutant) [1]: 2.29
- fold higher affinity than native hIGFBP-2 [3]: ~2 fold
- Rel. KD (KD of hIGFBP-2/KD of hIGFBP-2 mutant) [2]: 2.9
- fold higher affinity than native hIGFBP-2 [4]: ~2 fold
B2: K237AHis hIGFBP-2 (other, human)
chain: B1 chain with A227K, K237A
notes: mature

- Rel. KD (KD of hIGFBP-2/KD of hIGFBP-2 mutant) [1]: 0.64
- Rel. KD (KD of hIGFBP-2/KD of hIGFBP-2 mutant) [2]: 0.37
B3: K234AHis hIGFBP-2 (other, human)
chain: B1 chain with A227K, K234A
notes: mature; also called K234A hIGFBP-2; K234AHis IGFBP-2
